{
  "source": "patent US5807943A",
  "about": "“Synthesis of glycopolymers” (Johns Hopkins University, priority 1997, dated 1998)",
  "key": {"[1]": {"biological_target": "T1, serum-MBP-CRD (Rattus norvegicus, UniProt P19999)", "T1 construct": "Recombinant rat MBP-CRDs from serum and liver were expressed and purified; made in house; host or cells: bacteria (expression plasmid-bearing bacterial strains, gift of Dr. Kurt Drickamer)", "assay": "Solid-phase binding assay, inhibition of 125I-[mannose30-BSA] binding to serum MBP-CRD", "settings": "in the concentration range of SBA tested", "description": "(§1) Glycoamidase A was from Seikagaku America, Inc. (Rockville, Md.). GlcNAc was purchased from Pfanstiehl Laboratories, Inc. (Waukegan, Ill.). 3-(N-acryloylamino)-propyl β-D-GlcNAc (GlcNAc-NAP) and GlcNAc-O-(CH2)3CH=CH2 were gifts from Dr. Shin-Ichiro Nishimura of Hokkaido University, Japan.\n(§2) All steps were carried out at 4° C. Briefly, CRD (50 μl) was coated onto individual polystyrene wells (Immulon 4 Removawell Strips by Dynatech, from Fisher Scientific). […] Ligands and inhibitors were in 0.5% BSA in the above Tris buffer for binding and inhibition. […] The well contents were then removed, washed, and counted in a Packard Minaxi gamma counter."}, "[2]": {"biological_target": "T2, liver-MBP-CRD (Rattus norvegicus, UniProt P08661)", "T2 construct": "Recombinant rat MBP-CRDs from serum and liver were expressed and purified; made in house; host or cells: bacteria (expression plasmid-bearing bacterial strains, gift of Dr. Kurt Drickamer)", "T2 sequence (P08661 129-241 limits assumed)": "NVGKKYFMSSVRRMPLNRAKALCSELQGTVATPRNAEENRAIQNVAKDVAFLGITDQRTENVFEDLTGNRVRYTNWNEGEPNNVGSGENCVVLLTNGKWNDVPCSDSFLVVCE", "assay": "Solid-phase binding assay, inhibition of 125I-[mannose30-BSA] binding to liver MBP-CRD", "description": "as §1, §2"}},
  "data": [
    {"substance": "soybean agglutinin [SBA]", "values": [
      {"measurement": "inhibition of the serum-MBP-CRD (in words)", "setting": "[1]", "result": "no significant inhibition"},
      {"measurement": "IC50", "setting": "[2]; concentration based on Man9 GlcNAc2, 4° C., 20 hr incubation, read-out: I50 for the liver-MBP-CRD", "result": 13.2, "unit": "µM"},
      {"measurement": "I50 for the liver-MBP-CRD", "setting": "[2]; expressed as mg/ml of SBA", "result": 0.4, "unit": "mg/mL"}
    ]}
  ]
}
